# Data: the supplement of paper PMC10598134
# ± gives the standard deviation.
# Experiment: collision cross section of modified peptide (TIMS, N2, iRT-aligned); higher = larger / more extended gas-phase ion
# In short: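 Collision cross section values rest on the Mason-Schamp equation applied to calibrated, run-aligned mobility data from synthetic peptides. Mobility (1/K0) was calibrated with three reference ions and aligned per run to the median iRT peptide deviation, and 1–3 technical replicates of the most abundant feature per charge state were averaged. Data came from a timsTOF Pro/HT in dda-PASEF mode (nitrogen, ~2.4 mbar) after a 120-min nanoflow C18 gradient at 60 °C.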
# [1] = charge state: 2, modification: Methyl (R)
# [2] = charge state: 3, modification: Methyl (R)
# [3] = charge state: 2, modification: HexNAc (ST)
# [4] = charge state: 2, modification: Trimethyl (K)
# [5] = charge state: 3, modification: Trimethyl (K)
# [6] = charge state: 2, modification: Formyl
# [7] = charge state: 3, modification: Formyl
# [8] = charge state: 2, modification: Nitro (Y)
# [9] = charge state: 2, modification: Biotin
# [10] = charge state: 2, modification: hydroxyisobutyryl
# [11] = charge state: 3, modification: hydroxyisobutyryl
# [12] = charge state: 2, modification: Methyl (K)
# [13] = charge state: 3, modification: Methyl (K)
# [14] = charge state: 2, modification: Acetyl (K)
# [15] = charge state: 3, modification: Acetyl (K)
# [16] = charge state: 2, modification: Propionyl
# [17] = charge state: 2, modification: Hydroxyproline
sequence,measurement,setting,value
VEPIHAVVLPRGK [_VEPIHAVVLPR(Methyl (R))GK_],collision cross section,[1],424.97 ± 1 Å²
same,collision cross section,[2],489.93 ± 2.2 Å²
VEELEGEITTLNHK [_VEELEGEIT(HexNAc (ST))TLNHK_],collision cross section,[3],442.1 ± 10 Å²
same,collision cross section,"charge state: 3, modification: HexNAc (ST)",511.94 ± 0.96 Å²
LEEVTGKLQVAR [_LEEVTGK(Trimethyl (K))LQVAR_],collision cross section,[4],402.01 ± 1.1 Å²
same,collision cross section,[5],471.9 ± 1.5 Å²
GEVGAGAGPGAQAGPSAKR [_GEVGAGAGPGAQAGPSAK(Formyl)R_],collision cross section,[6],415.62 ± 0.18 Å²
same,collision cross section,[7],470.58 ± 2.9 Å²
RGGFAVQAK [_R(Citrullination (R))GGFAVQAK_],collision cross section,"charge state: 2, modification: Citrullination (R)",326.29 ± 0.63 Å²
LYAVHQEGNK [_LY(Nitro (Y))AVHQEGNK_],collision cross section,[8],359.52 ± 0.17 Å²
same,collision cross section,"charge state: 3, modification: Nitro (Y)",458.4 ± 0.23 Å²
DVNAAIAAIKTK [_DVNAAIAAIK(Formyl)TK_],collision cross section,[6],377.34 ± 15 Å²
FDDTNPEKEEAK [_FDDTNPEK(Biotin)EEAK_],collision cross section,[9],416.55 ± 1.6 Å²
same,collision cross section,"charge state: 3, modification: Biotin",504.96 ± 0.34 Å²
TTGFYSGFSEVAEKR [_TTGFYSGFSEVAEK(hydroxyisobutyryl)R_],collision cross section,[10],444.06 ± 0.8 Å²
same,collision cross section,[11],515.51 ± 0.49 Å²
TVSKVDDFLANEAK [_TVSK(Biotin)VDDFLANEAK_],collision cross section,[9],445.28 ± 0.73 Å²
IDLPAENSNSETIIITGKR [_IDLPAENSNSETIIITGK(Trimethyl (K))R_],collision cross section,[5],576.62 Å²
HELQANCYEEVKDR [_HELQANCYEEVK(hydroxyisobutyryl)DR_],collision cross section,[11],504.98 ± 2.9 Å²
TTEETSKPK [_TTEETSK(Methyl (K))PK_],collision cross section,[12],342.29 ± 0.79 Å²
same,collision cross section,[13],431.66 Å²
GETASKLQSEISR [_GETASK(Dimethyl (K))LQSEISR_],collision cross section,"charge state: 2, modification: Dimethyl (K)",398.3 ± 1.1 Å²
same,collision cross section,"charge state: 3, modification: Dimethyl (K)",460.41 ± 2.6 Å²
FLQEFYQDDELGKK [_FLQEFYQDDELGK(Gluratylation)K_],collision cross section,"charge state: 2, modification: Glutarylation",453.64 ± 1.5 Å²
same,collision cross section,"charge state: 3, modification: Glutarylation",517.26 Å²
DKALPLEAEVAPVK [_DK(hydroxyisobutyryl)ALPLEAEVAPVK_],collision cross section,[10],422.26 ± 0.83 Å²
TEVLSPNSKVESK [_TEVLSPNSK(Acetyl (K))VESK_],collision cross section,[14],411.3 ± 1.6 Å²
same,collision cross section,[15],448.45 ± 2.4 Å²
TFGKAAGPSLSHTSGGTQSK [_TFGK(Acetyl (K))AAGPSLSHTSGGTQSK_],collision cross section,[14],486.77 ± 4.6 Å²
same,collision cross section,[15],516.14 ± 6 Å²
SYVDTGGVSR [_SY(Nitro (Y))VDTGGVSR_],collision cross section,[8],342.4 ± 0.16 Å²
VTLEVGKVIQQGR [_VTLEVGK(Propionyl)VIQQGR_],collision cross section,[16],410.06 ± 0.37 Å²
PSVGSQSNQAGQGKR [_PSVGSQSNQAGQGK(Formyl)R_],collision cross section,[6],402.96 ± 2 Å²
same,collision cross section,[7],470.1 ± 1.8 Å²
SDDESSQKDIK [_SDDESSQK(Propionyl)DIK_],collision cross section,[16],377.44 ± 0.33 Å²
GEVGAGAGPGAQAGPSAKR [_GEVGAGAGPGAQAGPSAK(GlyGly (K))R_],collision cross section,"charge state: 2, modification: GlyGly (K)",426.91 ± 0.84 Å²
same,collision cross section,"charge state: 3, modification: GlyGly (K)",469.61 ± 1.1 Å²
IISSIEQKEENK [_IISSIEQK(Malonyl)EENK_],collision cross section,"charge state: 2, modification: Malonyl",405.63 ± 0.59 Å²
DLGKFQVATDALK [_DLGK(Methyl (K))FQVATDALK_],collision cross section,[12],399.05 ± 1.1 Å²
same,collision cross section,[13],491.01 ± 3.2 Å²
PGPQPSAETTR [_PGP(Hydroxyproline)QPSAETTR_],collision cross section,[17],345.87 ± 0.25 Å²
AGRGFSLEELR [_AGR(Methyl (R))GFSLEELR_],collision cross section,[1],379.24 Å²
same,collision cross section,[2],460.11 ± 2.4 Å²
TTEETSKPK [_TTEETSK(Trimethyl (K))PK_],collision cross section,[4],342 ± 0.055 Å²
VGEFSGANKEK [_VGEFSGANK(Propionyl)EK_],collision cross section,[16],367.87 ± 0.33 Å²
GTITVSAQELKDNR [_GTITVSAQELK(Crotonyl)DNR_],collision cross section,"charge state: 2, modification: Crotonyl",422.36 ± 0.55 Å²
same,collision cross section,"charge state: 3, modification: Crotonyl",483.09 ± 1.6 Å²
IGNSYFKEEK [_IGNSYFK(Acetyl (K))EEK_],collision cross section,[14],372.71 ± 0.4 Å²
STLEEPNLQPLQR [_S(HexNAc (ST))TLEEPNLQPLQR_],collision cross section,[3],436.25 ± 0.56 Å²
VFIGNLNTLVVKK [_VFIGNLNTLVVK(hydroxyisobutyryl)K_],collision cross section,[10],416.95 ± 0.83 Å²
same,collision cross section,[11],490.45 ± 2.8 Å²
GERGVPGER [_GERGVP(Hydroxyproline)GER_],collision cross section,[17],328.27 ± 0.79 Å²
same,collision cross section,"charge state: 3, modification: Hydroxyproline",402.04 Å²
